Assay results taken from patent US20170130210A1.
Values joined by “and” are separate entries in the source; they are usually repeats but may differ in a detail not shown here. Identical values can stand only once.

Biological target: Pfk-I with the C-terminal degradation tag DAS+4, expressed from the pfkA locus of E. coli strain IB1863 (E. coli) (UniProt P0A796)
Assay: cell-based or functional assay

Sequence of Pfk-I with the C-terminal degradation tag DAS+4, expressed from the pfkA locus of E. coli strain IB1863 (E. coli) (P0A796 1-320, tags or fused parts left off): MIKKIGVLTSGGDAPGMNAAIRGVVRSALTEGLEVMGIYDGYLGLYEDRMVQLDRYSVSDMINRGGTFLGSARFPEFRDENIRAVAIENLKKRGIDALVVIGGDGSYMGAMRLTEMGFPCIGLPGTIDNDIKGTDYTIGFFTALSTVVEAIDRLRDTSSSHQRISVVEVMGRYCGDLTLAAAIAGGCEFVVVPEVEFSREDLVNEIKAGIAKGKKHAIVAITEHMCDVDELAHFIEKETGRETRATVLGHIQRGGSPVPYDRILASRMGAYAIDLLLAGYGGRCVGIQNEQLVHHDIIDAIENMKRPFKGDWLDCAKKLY

## SspB, native E. coli adaptor protein (from UniProt P0AFZ3 1-165)
  Pfk activity in crude lysate of IB1863 after aTc induction of SspB, relative to wild-type (% of wild-type): 35 and 18
